Source: patent US11738096B2, “Method of detecting diseased or damaged tissue with a pH-triggered polypeptide fluorophore composition” (University of Rhode Island Board of Trustees, priority 2016, dated 2023)
Where a SMILES comes first, the peptide text is derived from it. The star is where a group is joined. X1 = CC1(C)C(/C=C/C=C/C=C/C=C2/N(CCCCCC(=O)NCCN3C(=O)CC(*)C3=O)c3ccc4ccccc4c3C2(C)C)=[N+](CCCCS(=O)(=O)[O-])c2ccc3ccccc3c21

Experiments:
[1] = tested on: urothelial carcinoma in human bladder specimens; assay: Ex vivo NIR fluorescence imaging of radical cystectomy bladder specimens, 60 min instillation
Procedure: 22 urothelial carcinoma patients that were scheduled for radical cystectomy were selected over a twelve month period. After radical cystectomy, bladder specimens were immediately removed and irrigated 3 times for 5 min via catheter with non-buffered saline and instilled and incubated with 80 ml of 8 μM or 32.8 μg/ml (unless otherwise is stated, see notes to Table 8) of ICG-Var3 construct or ICG-Cys in PBS pH 7.4 containing 10 mM D-glucose for 60 minutes. Then, the unbound constructs were removed by rinsing with 80 ml of saline solution 3-5 times, the bladder was irrigated thoroughly with buffered saline and opened using a Y incision on the anterior wall. Using a da Vinci Si near-infrared fluorescence imaging system (Firefly^R), ex vivo fluorescent and white light imaging of the entire bladder and its parts was performed. The fluorescent spots were marked and standard pathological analysis was carried out to explore the correlation between appearance of fluorescent signal and cancer lesions.
The specimen was sectioned and submitted after 24 hour fixation in 10% phosphate-buffered formalin according to the standard institutional grossing manual, with emphasis on the marked areas of the bladder. The sections were processed for routine histology into paraffin-embedded blocks. […]
Statistical parameters were calculated according to the following equations: […]

[2] = tested on: 4T1 murine mammary carcinoma; assay: Tumor targeting in mice bearing 4T1 tumors; type: in vivo, mouse; settings: 20 μM, IV, 16 h
Procedure: Adult female nude mice and female BALB/cAnNHsd mice (Envigo), 20-25 g in body mass were used in the study. Mouse mammary cancer 4T1 cells were subcutaneously implanted in the right flank (8×10^5 cells/0.1 mL/flank) of adult female BALB/cAnNHsd mice. Rat bladder cancer AY27 cells were subcutaneously implanted in the right flank (8×10^5 cells/0.1 mL/flank) of adult female nude mice. When tumors reached approximately 5-6 mm in diameter, single tail vein injection or single intraperitoneal injection of fluorophore-pHLIP® solutions in PBS were performed. Fluorescent constructs were used in amounts of 100 μL of 40 μM, or 100 μL of 20 μM, or 100 μL of 10 μM, or 100 μL of 5 μM. Imaging of mouse was performed at 16 hours after constructs administration. Skin was removed from the tumor site just before imaging while animal was under gas anesthesia, and mice were euthanized immediately after imaging. Tumor, kidney and liver were harvested, imaged and used for histopathological analysis. Imaging was performed using Stryker clinical imaging instrument. Autofluorescence was established by imaging mouse with no injection of fluorescent constructs (the level of autofluorescence signal was insignificant compared to the signal after the constructs administration).

[3] = NIR fluorescence imaging of blood vessels and blood flow (ear, leg, blood samples) in mice; type: in vivo, mouse; settings: blood collected 5-120 min after IV injection
Procedure: Adult female nude mice (Envigo), 20 g in body mass were used in the study. Fluorescent constructs were given as a single tail vein injection in amounts of 100 μL of 40 μM in PBS. Imaging of mouse ear and leg was performed at 5, 30, 60, 90 and 120 min after construct administration. At 5, 30, 60, 90 and 120 min after construct administration 5 μL of blood was withdrawn from tail (and mixed with 5 μL of anticoagulating solution to preserve blood) while animal was under anesthesia. Mice were euthanized immediately after last imaging point (120 min). Blood collected from all animals was deposited on the glass slide, dried and imaged. Imaging was performed using Novadaq clinical imaging instrument. Autofluorescence was established by imaging mouse with no injection of fluorescent constructs (the level of autofluorescence signal was insignificant compared to the signal after the constructs administration).

CC(C)C[C@H](NC(=O)[C@H](Cc1ccc(O)cc1)NC(=O)[C@H](C)NC(=O)[C@H](CCCNC(=N)N)NC(=O)[C@H](Cc1c[nH]c2ccccc12)NC(=O)[C@@H]1CCCN1C(=O)[C@H](CC(N)=O)NC(=O)[C@H](CCC(N)=O)NC(=O)[C@H](CC(=O)O)NC(=O)[C@H](CC(=O)O)NC(=O)[C@H](CSC1CC(=O)N(CCNC(=O)CCCCCN2/C(=C/C=C/C=C/C=C/C3=[N+](CCCCS(=O)(=O)[O-])c4ccc5ccccc5c4C3(C)C)C(C)(C)c3c2ccc2ccccc32)C1=O)NC(=O)[C@H](C)N)C(=O)N[C@@H](CC(=O)O)C(=O)N[C@@H](CC(C)C)C(=O)N[C@@H](CC(C)C)C(=O)N[C@@H](Cc1ccccc1)C(=O)N1CCC[C@H]1C(=O)N[C@H](C(=O)N[C@@H](CC(=O)O)C(=O)N[C@H](C(=O)N[C@@H](CC(C)C)C(=O)N[C@@H](CC(C)C)C(=O)N[C@@H](CC(C)C)C(=O)N[C@@H](CC(=O)O)C(=O)N[C@@H](CC(C)C)C(=O)N[C@@H](CC(C)C)C(=O)N[C@@H](Cc1c[nH]c2ccccc12)C(=O)N[C@@H](C)C(=O)O)[C@@H](C)O)[C@@H](C)O (stereo partly drawn) [ICG-Var3] (H-AC(X1)DDQNPWRAYLDLLFPTDTLLLDLLWA-OH)
adverse morphological findings in specimens after incubation [1]: did not show any adverse morphological findings | organ of clearance [2]: cleared by the liver | fluorescent signal in blood samples [3]: persistence of strong fluorescent signal within 2 hours
